These are literature values, as cited in US7776558B2, “Human G protein-coupled receptor and modulators thereof for the treatment of cell death-related disorders” (Arena Pharmaceuticals, Inc., priority 2003, dated 2010).

The target in one series is T1, FPRL2 (Homo sapiens, UniProt P25089).
T1 sequence (P25089 1-353): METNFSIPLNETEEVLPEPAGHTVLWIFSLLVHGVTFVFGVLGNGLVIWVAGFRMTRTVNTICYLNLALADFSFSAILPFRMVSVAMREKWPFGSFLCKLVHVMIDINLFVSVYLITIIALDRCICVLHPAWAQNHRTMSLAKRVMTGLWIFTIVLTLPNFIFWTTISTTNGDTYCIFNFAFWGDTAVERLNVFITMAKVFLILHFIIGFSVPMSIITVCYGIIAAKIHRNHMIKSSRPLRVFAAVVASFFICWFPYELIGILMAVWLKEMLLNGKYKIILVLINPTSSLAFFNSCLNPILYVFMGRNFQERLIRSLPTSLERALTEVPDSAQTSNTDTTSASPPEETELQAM
Particulars: cited from earlier work.

Series [1] concerns the target T2, FPRL2 on mature human dendritic cells (Homo sapiens, UniProt P25089).
T2 construct: host or cells: mature human dendritic cells
T2 sequence (P25089 1-353): T1 sequence (P25089 1-353)
Conditions: Yang et al. 2002; cited from earlier work.

With `CCCCC[C@H](O)/C=C/C=C\C=C\C=C\[C@@H](O)[C@@H](O)CCCC(=O)O` [lipoxin A4], at FPRL2, the “Ligand status at FPRL2” value is given as “shown not to be ligands for FPRL2”.

For WKYMVm, in series [1], the “Binding to FPRL2” value is “bind to FPRL2 on mature human dendritic cells” and the “Intracellular Ca2+” value is recorded as “elicit an increase in intracellular Ca^2+”.
